A short description of assay [1]: Glycan array, AcSTn. Conditions: for Glycan Array AcSTn: summary table. The class given is binding. Here is the method:
(§1) Optimized glycan arrays comprise 71 chemically synthesized and well-defined glycans, most of which comprise Neu5Ac and Neu5Gc glycan pairs.
(§2) 300 ml of epoxy blocking buffer is prepared by combining 15 ml of 2 M Tris buffer (pH 8) with 0.9 ml of 16.6 M ethanolamine and 284.1 ml of distilled water. The solution was brought to a final pH of 9.0 with HCl. The solution is filtered using a […] nitrocellulose membrane. The epoxy buffer solution as well as 1 L of distilled water are pre-warmed to 50° C. Glass slides are arranged in a slide holder and quickly submerged in a staining tub with the warmed epoxy blocking buffer. Slides are incubated in the epoxy blocking buffer for 1 hour at 50° C. with periodic shaking to deactivate epoxy binding sites. Next, slides are rinsed and blocked with PBS with 1% OVA at 25° C. for one hour. Serum samples with polyclonal antibodies (1:1000) or purified monoclonal antibodies (1 ug/mL), are diluted in PBS with 1% OVA and added to the glycan array for one hour at 25° C. After extensive washing, binding of antibodies are detected by incubating glycan microarray slides with Cy3-conjugated anti-mouse IgG (Jackson Immunoresearch, West Grove, Pa.) for one hour. Slides are then washed extensively, dried and scanned with a Genepix 4000B scanner (Laser at 100%; gain at 350; 10 μm pixels). Raw data from scanned images are extracted using the Genepix software and analysis of raw data is carried out.

Assay [2] in a line: Glycan array, GcSTn. Conditions: for Glycan Array GcSTn: summary table. The assay is classed as binding. Here is the method: as §1, §2
Assay [3] is described as follows: Glycan array STn specificity and anti-STn antibody group assignment. The assay is classed as binding. Also on record: key to Group (anti-STn antibody group): Group 1: antibodies capable of binding AcSTn and GcSTn; Group 2: ability to bind STn as well as some related structures that include an O-linkage to serine or threonine; Group 3: antibodies capable of binding STn, but may also bind a broader set of related structures; Group 4: capable of binding to both AcSTn and GcSTn as well as the un-sialylated Tn antigen. Conditions: for Group (anti-STn antibody group): assigned from flow cytometry and glycan array analysis; for Glycan Array STn Specificity: summary table. Here is the method: as §2
Based on characterization data, anti-STn antibodies developed from Group 6 and Group 8 mice were categorized by anti-STn group number. In some cases, antibodies were assigned to Group 1. Group 1 antibodies according to the invention are antibodies capable of binding AcSTn and GcSTn. Such antibodies may have the ability to associate with a wider range of STn structures. The large oval in FIG. 1A indicates the portion of STn recognized by Group 1 antibodies. Antibodies were assigned to Group 2 based on their ability to bind STn as well as some related structures that include an O-linkage to serine or threonine. The large oval in FIG. 1B indicates the portion of STn recognized by Group 2 antibodies. In some cases, Group 2 antibodies may bind to glycans comprising a sialylated galactose residue. Some Group 2 antibodies preferably bind to structures with AcSTn over structures with GcSTn. Further anti-STn antibodies were assigned to Group 3. Group 3 antibodies are antibodies capable of binding STn, but may also bind a broader set of related structures. […] The large oval in FIG. 1C indicates the portion of STn recognized by Group 3 antibodies. Finally, some anti-STn antibodies were assigned to Group 4. Group 4 antibodies are capable of binding to both AcSTn and GcSTn as well as the un-sialylated Tn antigen, and therefore have broader specificity. The large oval in FIG. 1D indicates the portion of STn recognized by Group 4 antibodies. […] Also listed in the Table is the antibody Isotype for each antibody as determined by the IsoStrip mouse monoclonal antibody isotyping kit (Roche Diagnostics GmbH, Manheim, Germany).

In assay [4] the test system is ST6GalNAc 1 transfected MDA-MB-231 cells (MDA-STn+). As to the kind of experiment: Flow cytometry-based analysis of antibody binding, STn+ cells. Also on record: species or system human. The settings on record: for EC50, flow cytometry binding to cell-associated STn: ST6GalNAc 1 transfected MDA-MB-231 cells, APC anti-mouse IgG. Here is the method:
Flow cytometry-based analysis is carried out to elucidate the curve-dose response for binding of antibodies to cell surface antigens. For these analyses, three cell lines are employed.
MDA-MB-231 cells are human breast cancer cells. They are grown in Earle's Minimum Essential Medium supplemented with 10% fetal calf serum (FCS), 100 μg/ml penicillin, 100 UI/ml streptomycin and 45 μg/ml gentamycin. MCF-7 cells are also human breast cancer cells and are grown under the same conditions as MDA-MB-231 cells. Stably transfected versions of MDA-MB-231 and MCF-7 cells (clone TAH3.P10 for MDA-MB-231 cells and clone A12.1 for MCF-7 cells) that over express GalNAc α2,6-sialyltransferase (ST6GalNAc 1,) are also cultured under the same conditions with the exception of an added 1 mg/ml of G418 to support cells expressing the transgene. ST6GalNAc 1 is an enzme capable of sialylating GalNAc. As a result of over expression, transfected cells express high levels of Neu5Ac-STn (see Julien, S. et al., Glycoconjugate journal. 2001. 18, 883-93; the contents of which are herein incorporated by reference in their entirety). E3 cells are murine breast cancer cells. They are cultured in Dulbecco's E4 medium with 10% FCS. Stably transfected versions of E3 cells expressing high levels of Neu5Gc-STn (E3-STn) are cultured with 600 μg/ml of G418 and 200 μg/ml hygromycin. During growth and maintenance of experimental cells, trypsin is not used for cell passaging.
For analysis, cells are harvested using StemPro Accutase (Life Technologies, Carlsbad, Calif.) and washed with PBS comprising 5% FBS before pelleting by light centrifugation. Cell numbers and viability are determined by trypan blue dye exclusion analysis and cell concentrations are adjusted to 5×10^6 cells/ml in PBS with 5% FBS. 50 μl of cells are added to each well of an assay plate. Cells are combined with 50 μl solutions of antibody being analyzed or control antibodies and incubated for 1 hour at 4° C. Cells are washed and pelleted twice with PBS with 5% FBS before being treated with 100 μl of PBS with 5% FBS comprising a 1:1,500 dilution of anti-mouse IgG (Southern Biotech, Birmingham, Ala.,) conjugated to allophycocyanin (APC). Cells are incubated for 30 min at 4° C. before washing and resuspending in 200 μl of propidium iodide (PI) diluted 1:1000 in PBS with 5% FBS. Treated cells are then subjects to flow cytometry analysis and 10,000 events are acquired for each sample.
For orientation: Flow cytometry measures light scatter and fluorescence of single cells or particles in a stream.

Setting [5] is: STn expressed on MDA cells, based on mean fluorescence intensity of APC, #1, #2, #3 = lots, nM, read-out: EC50 value.
Setting [6] is: summary table, unit not printed (same values in nM), read-out: Flow cytometry (EC50) MDA-STn+.
The mark [7] stands for this setting: glycan microarray, Cy3 anti-mouse IgG.

This is an account of results in patent publication US20180280504A1, “GLYCAN-INTERACTING COMPOUNDS AND METHODS OF USE” (SIAMAB THERAPEUTICS, INC., priority 2014, published 2018).

Positions count from the first letter of the chain named. Several values for one entry are separate records, joined by “and”; a condition that tells them apart may be missing. Equal entries are not always repeated. Where two headings read alike, the source gives them in different places.

B1: 10A5: anti-STn mouse monoclonal, IgG2c κ, from mouse #4406; VH SEQ ID NO: 6, VL SEQ ID NO: 7 (antibody, V domains shown)
VH: QVQLKESGPGLVAPSQSLSITCTVSGFSLTSYGVSWVRQPPGKGLEWLGVIWGDGSTNYHSSLISRLSISKDNSKSQVFLKLNSLQTDDTATYYCARAFVYWGQGTLVTVSA
VL: QIVLTQSPAIMSASPGEKVTMTCSASSSVSYIHWYQQKSGTSPKRWIYDTSKLASGVPARFSGSGSGTSYSLTISSMEAEDAATYYCQQWSSNPPMLTFGAGTKLELK
As a reminder, the EC50 is the concentration at which the effect is half-maximal. As for B1, in assay [1], the “Glycan Array AcSTn” value amounted to 96%. In assay [2], the “Glycan Array GcSTn” value amounted to 1%. Further, in assay [3], the “Group (anti-STn antibody group)” value is “Group 2”. For the same molecule, the “Glycan Array STn Specificity” value in assay [3] is 97%. Also, the “EC50, flow cytometry binding to cell-associated STn” value (shortened to “EC50, flow cytometry binding”) in assay [4] is 3.62 nM and 5.57 nM. The EC50 in assay [4] (setting [5]) and in assay [4] (setting [6]) was 5.57 nM each time.

B2: 2D4: anti-STn mouse monoclonal, IgG2b κ, from mouse #4407; VH SEQ ID NO: 10, VL SEQ ID NO: 11 (antibody, V domains shown)
VH: B1 VH with K5Q, T30I, S35N, H60Q, S62A, S68I, A96T, R97K, A98G, V100A
VL: QIVLTQSPAIMSASPGEKVTMTCSASSSVSYMHWFQQKSGTSPKRWIYDTSKLASGVPARFSGSGSGTSYSLTISSMEAEDAATYYCQQWSSNLLTFGAGTKLELK
Consider B2, for which the “Glycan Array AcSTn” value in assay [1] is listed as 88%. In assay [2], the “Glycan Array GcSTn” value is given as 1%. Further, in assay [3], the “Group (anti-STn antibody group)” value is recorded as “Group 2”. Further, the “Glycan Array STn Specificity” value in assay [3] is 89%. In addition, the “EC50, flow cytometry binding” value in assay [4] was determined as 1.41 nM; in assay [4] (listed as 2D4-1B4), 1.19 nM. Also, the EC50 is 2.23 nM in assay [4] (STn expressed on MDA cells, based on mean fluorescence intensity of APC, #1, #2, #3 = lots, nM, listed as 2D4#1, read-out: EC50 value); 1.41 nM in assay [4] (STn expressed on MDA cells, based on mean fluorescence intensity of APC, #1, #2, #3 = lots, nM, listed as 2D4#2, read-out: EC50 value); 1.41 nM in assay [4] (setting [6]).

B3: 8C11: anti-STn mouse monoclonal, IgG2b κ, from mouse #4407; VH SEQ ID NO: 8, VL SEQ ID NO: 9 (antibody, V domains shown)
VH: B1 VH with S62A, S68I, A96T, R97K, A98G, V100T
VL: B2 VL with F35Y, Y48F
On to B3, for which the “Glycan Array AcSTn” value in assay [1] amounted to 75%. Besides, the “Glycan Array GcSTn” value in assay [2] was 9%. Besides, the “Group (anti-STn antibody group)” value in assay [3] is “Group 2”. In addition, the “Glycan Array STn Specificity” value in assay [3] was 84%. Also, the entries for the “EC50, flow cytometry binding” value in assay [4] and in assay [4] (listed as 8C11 Lot 111113) were 7.52 nM and 7.28 nM, respectively.

B4: 7G9: anti-STn mouse monoclonal, IgG2b κ, from mouse #4407; VH SEQ ID NO: 12, VL SEQ ID NO: 9 (antibody, V domains shown)
VH: B1 VH with S17N, S35N, S62A, S68I, D72E, D88N, A96T, R97K, A98G
VL: B2 VL with F35Y, Y48F
Regarding B4, in assay [1], the “Glycan Array AcSTn” value worked out at 72%. The “Glycan Array GcSTn” value in assay [2] is 7%. For the same molecule, the “Group (anti-STn antibody group)” value in assay [3] is “Group 2”. In addition, the “Glycan Array STn Specificity” value in assay [3] is given as 79%. Besides, the “EC50, flow cytometry binding” value in assay [4] was 6.91 nM; in assay [4] (listed as 7G9#2), 7.33 nM; in assay [4] (listed as 7G9#3), 5.15 nM. Further, the EC50 in assay [4] (setting [5]) and in assay [4] (setting [6]) was 5.15 nM throughout.

B5: 18C7: anti-STn mouse monoclonal, IgG2c κ, from mouse #4436; VH SEQ ID NO: 4, VL SEQ ID NO: 5 (antibody, V domains shown)
VH: QVTLKESGPGILQPSQTLSLTCSFSGFSLSTFGMGVGWIRQPSGKGLEWLAHIWWDDDKYYNPALKSRLTISKDTSKNQVFLKIANVDTADTATYYCARIAYYYGSERDYWGQGTTLTVSS
VL: QIVLTQSPAIMSASPGEKVTMTCSASSSISYMHWYHQKPGTSPKRWIYDTSKLASGVPARFSGSGSGTSYSLTISSMEAEDAATYYCHQRSSYTFGGGTKLEIKR
In the case of B5, in assay [1] (setting [7]), the “mean fluorescence intensity, AcSTn” value is listed as “about 9,000”. Also, the “Glycan Array AcSTn” value in assay [1] was 60%. In addition, the “mean fluorescence intensity, GcSTn” value in assay [2] (setting [7]) is “about 3,500”. In assay [2], the “Glycan Array GcSTn” value worked out at 40%. Further, in assay [3], the “Group (anti-STn antibody group)” value was “Group 1” and the “Glycan Array STn Specificity” value came out at 100%. Further, the “EC50, flow cytometry binding” value in assay [4] was 60.35 nM. In assay [4] (setting [6]), the EC50 was 354 nM.
